From FireProtDB (doi:10.1002/pro.2449)

Conditions: pH 7, transition: 2, reversible: yes, whole UniProt chain shown; for Tm / unfolding enthalpy (calorimetric): Thermal, DSC; for denaturant m value / denaturant midpoint (higher = more stable) / unfolding free energy: 25 °C, Urea
[1] = Kitasatospora aureofaciens, MOPS
[2] = Aspergillus oryzae (strain ATCC 42149 / RIB 40), MOPS
[3] = Borreliella burgdorferi, CD, Sodium Phosphate Buffer

B1: Guanyl-specific ribonuclease Sa wild type, P05798 (protein)
chain: DVSGTVCLSALPPEATDTLNLIASDGPFPYSQDGVVFQNRESVLPTQSYGYYHEYTVITPGARTRGTRRIITGEATQEDYYTGDHYATFSLIDQTC
[1]
  Tm: 48.4 °C
  unfolding enthalpy (calorimetric): 92 kcal/mol

B2: Guanyl-specific ribonuclease T1 wild type, P00651 (protein)
chain: MMYSKLLTLTTLLLPTALALPSLVERACDYTCGSNCYSSSDVSTAQAAGYQLHEDGETVGSNSYPHKYNNYEGFDFSVSSPYYEWPILSSGDVYSGGSPGADRVVFNENNQLAGVITHTGASGNNFVECT
[2]
  denaturant m value: 1.17 kcal/mol/M
  denaturant midpoint (higher = more stable): 5.2 M
  unfolding free energy: 6.1 kcal/mol
  Tm: 52.5 °C
  unfolding enthalpy (calorimetric): 107 kcal/mol

B3: Variable large protein wild type, Q5DVG3 (protein)
chain: MNTKKISSAILLTTFFVFINCKSQVADKDDPTNKFYQSVIQLGNGFLDVFTSFGGLVAEAFGFKSDPKKSDVKTYFTTVAAKLEKTKTDLNSLPKEKSDISSTTGKPDSTGSVGTAVEGAIKEVSELLDKLVKAVKTAEGASSGTAAIGEVVDNAAAAKAADKDSVTGIAKGIKEIVEAAGGSKKLKAAAAKGENNKGAGKLFGKAGDAAHGDSEAASKAAGAVSAVSGEQILSAIVKAAAAGDQEGKKPGEAKNPIAAAIGEGDGDAEFNQDGMKKDDQIAAAIALRGMAKDGKFAVKNDEKGKAEGAIKGAAESAVRKVLGAITGLIGDAVSSGLRKVGDSVKAASKETPPALNK
[3]
  denaturant m value: 3.86 kcal/mol/M
  denaturant midpoint (higher = more stable): 1.19 M
  unfolding free energy: 4.6 kcal/mol
